Assay results from article PMC2756588.

T1: Bud14, P27637
T1 sequence (P27637 247-328, looked up): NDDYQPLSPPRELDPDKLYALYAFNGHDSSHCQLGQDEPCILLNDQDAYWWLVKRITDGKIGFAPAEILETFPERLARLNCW

T2: Sla1-3, P32790
T2 sequence (P32790 344-424, looked up): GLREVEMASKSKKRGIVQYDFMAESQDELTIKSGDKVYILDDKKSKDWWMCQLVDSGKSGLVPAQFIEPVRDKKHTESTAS

T3: Pex13, P80667
T3 sequence (P80667 295-386, looked up): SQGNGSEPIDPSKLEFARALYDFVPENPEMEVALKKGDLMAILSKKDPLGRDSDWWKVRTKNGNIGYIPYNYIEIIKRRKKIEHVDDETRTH

T4: Hse1, P38753
T4 sequence (P38753 208-285, looked up): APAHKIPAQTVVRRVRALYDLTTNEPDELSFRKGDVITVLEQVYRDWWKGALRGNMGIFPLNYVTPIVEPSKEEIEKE

T5: Lsb4, P32793
T5 sequence (P32793 402-468, looked up): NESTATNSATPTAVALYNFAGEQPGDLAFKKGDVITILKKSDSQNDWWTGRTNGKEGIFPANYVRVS

T6: Cdc25, P04821
T6 sequence (P04821 50-136, looked up): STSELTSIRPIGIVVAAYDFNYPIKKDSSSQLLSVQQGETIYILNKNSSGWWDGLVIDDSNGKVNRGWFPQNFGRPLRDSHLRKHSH

T7: Fus1, P11710
T7 sequence (P11710 432-512, looked up): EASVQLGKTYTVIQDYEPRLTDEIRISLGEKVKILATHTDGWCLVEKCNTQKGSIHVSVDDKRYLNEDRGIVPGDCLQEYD

T8: Abp1, P15891
T8 sequence (P15891 535-592, looked up): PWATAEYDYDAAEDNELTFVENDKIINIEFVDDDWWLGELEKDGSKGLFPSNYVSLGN

T9: Boi1, P38041
T9 sequence (P38041 1-86, looked up): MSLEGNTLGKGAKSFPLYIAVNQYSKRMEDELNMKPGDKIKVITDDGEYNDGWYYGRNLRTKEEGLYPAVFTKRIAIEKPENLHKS

T10: Sla1-2, P32790
T10 sequence (P32790 60-140, looked up): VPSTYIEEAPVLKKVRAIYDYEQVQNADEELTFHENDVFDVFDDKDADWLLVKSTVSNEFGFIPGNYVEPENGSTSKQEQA

T11: Nbp2, Q12163
T11 sequence (Q12163 103-180, looked up): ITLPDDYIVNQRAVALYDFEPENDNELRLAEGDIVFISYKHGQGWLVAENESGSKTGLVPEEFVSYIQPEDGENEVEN

T12: Boi2, P39969
T12 sequence (P39969 32-116, looked up): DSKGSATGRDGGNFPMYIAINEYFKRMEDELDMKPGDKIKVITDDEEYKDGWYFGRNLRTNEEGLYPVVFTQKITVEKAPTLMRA

T13: Hof1, Q05080
T13 sequence (Q05080 590-669, looked up): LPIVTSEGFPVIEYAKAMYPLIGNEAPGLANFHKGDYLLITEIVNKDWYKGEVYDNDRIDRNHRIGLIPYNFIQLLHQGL

T14: Myo5, Q04439
T14 sequence (Q04439 1072-1160, looked up): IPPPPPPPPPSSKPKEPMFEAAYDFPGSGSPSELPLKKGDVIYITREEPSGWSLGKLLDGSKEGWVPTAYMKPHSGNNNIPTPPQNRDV

T15: Cyk3, Q07533
T15 sequence (Q07533 1-83, looked up): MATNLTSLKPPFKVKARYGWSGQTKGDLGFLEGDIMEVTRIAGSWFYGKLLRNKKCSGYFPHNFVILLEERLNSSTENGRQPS

T16: Bzz1-1, P38822
T16 sequence (P38822 478-572, looked up): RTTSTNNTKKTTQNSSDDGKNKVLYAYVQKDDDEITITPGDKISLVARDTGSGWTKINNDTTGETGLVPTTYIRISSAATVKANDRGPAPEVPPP

T17: Lsb3, P43603
T17 sequence (P43603 385-451, looked up): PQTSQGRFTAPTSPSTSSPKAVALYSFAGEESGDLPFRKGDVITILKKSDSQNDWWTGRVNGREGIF

T18: Pin3, Q06449
T18 sequence (Q06449 53-122, looked up): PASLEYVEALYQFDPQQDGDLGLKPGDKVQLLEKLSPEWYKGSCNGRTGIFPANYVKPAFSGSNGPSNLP

T19: Bzz1-2, P38822
T19 sequence (P38822 568-633, looked up): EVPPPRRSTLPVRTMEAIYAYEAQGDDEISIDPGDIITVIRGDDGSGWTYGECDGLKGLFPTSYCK

T20: Lsb1, P53281
T20 sequence (P53281 45-122, looked up): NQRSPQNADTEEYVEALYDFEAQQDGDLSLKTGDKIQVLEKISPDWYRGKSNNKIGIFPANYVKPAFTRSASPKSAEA

T21: Bbc1, P47068
T21 sequence (P47068 1-78, looked up): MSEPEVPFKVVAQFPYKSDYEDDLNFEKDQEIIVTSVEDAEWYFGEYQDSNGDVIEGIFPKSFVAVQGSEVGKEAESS


Legend:
Experiment in all cases: SPOT array
Bud14, P27637 = molecular target: T1, Bud14, P27637; details: median of control spots 956
Sla1-3, P32790 = molecular target: T2, Sla1-3, P32790; details: median of control spots 5475
Rvs167, P39743 = details: median of control spots 2707
Pex13, P80667 = molecular target: T3, Pex13, P80667; details: median of control spots 1341
Hse1, P38753 = molecular target: T4, Hse1, P38753; details: median of control spots 1727
Myo3, P36006 = details: median of control spots 468
Lsb4, P32793 = molecular target: T5, Lsb4, P32793; details: median of control spots 397
Cdc25, P04821 = molecular target: T6, Cdc25, P04821; details: median of control spots 969
Fus1, P11710 = molecular target: T7, Fus1, P11710; details: median of control spots 1200
Abp1, P15891 = molecular target: T8, Abp1, P15891; details: median of control spots 935
Boi1, P38041 = molecular target: T9, Boi1, P38041; details: median of control spots 1162
Sla1-2, P32790 = molecular target: T10, Sla1-2, P32790; details: median of control spots 712
Sho1, P40073 = details: median of control spots 1148
GST = details: median of control spots 978
Nbp2, Q12163 = molecular target: T11, Nbp2, Q12163; details: median of control spots 357
Boi2, P39969 = molecular target: T12, Boi2, P39969; details: median of control spots 1161
Bem1-2, P29366 = details: median of control spots 4347
Hof1, Q05080 = molecular target: T13, Hof1, Q05080; details: median of control spots 4086
Myo5, Q04439 = molecular target: T14, Myo5, Q04439; details: median of control spots 471
Cyk3, Q07533 = molecular target: T15, Cyk3, Q07533; details: median of control spots 1451
Bem1-1, P29366 = details: median of control spots 4282
Bzz1-1, P38822 = molecular target: T16, Bzz1-1, P38822; details: median of control spots 4446
Lsb3, P43603 = molecular target: T17, Lsb3, P43603; details: median of control spots 406
Pin3, Q06449 = molecular target: T18, Pin3, Q06449; details: median of control spots 2171
Bzz1-2, P38822 = molecular target: T19, Bzz1-2, P38822; details: median of control spots 4538
Lsb1, P53281 = molecular target: T20, Lsb1, P53281; details: median of control spots 388
Bbc1, P47068 = molecular target: T21, Bbc1, P47068; details: median of control spots 796

Rvs167, P39743, sequence (P39743 419-482): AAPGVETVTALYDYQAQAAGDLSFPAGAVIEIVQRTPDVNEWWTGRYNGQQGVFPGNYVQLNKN
Bem1-2, P29366, sequence (P29366 139-227): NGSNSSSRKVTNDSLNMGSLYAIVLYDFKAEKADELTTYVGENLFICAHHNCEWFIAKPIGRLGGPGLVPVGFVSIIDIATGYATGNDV
Bem1-1, P29366, sequence (P29366 55-141): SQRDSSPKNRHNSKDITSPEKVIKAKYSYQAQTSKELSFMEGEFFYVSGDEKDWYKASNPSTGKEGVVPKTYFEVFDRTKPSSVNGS
Sho1, P40073, sequence (P40073 287-367): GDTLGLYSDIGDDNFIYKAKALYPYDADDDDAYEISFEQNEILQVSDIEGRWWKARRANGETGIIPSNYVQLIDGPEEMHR

Row | SPOT intensity (Bud14, P27637) | SPOT intensity (Sla1-3, P32790) | SPOT intensity (Rvs167, P39743) | SPOT intensity (Pex13, P80667) | SPOT intensity (Hse1, P38753) | SPOT intensity (Myo3, P36006) | SPOT intensity (Lsb4, P32793) | SPOT intensity (Cdc25, P04821) | SPOT intensity (Fus1, P11710) | SPOT intensity (Abp1, P15891) | SPOT intensity (Boi1, P38041) | SPOT intensity (Sla1-2, P32790) | SPOT intensity (Sho1, P40073) | SPOT intensity (GST) | SPOT intensity (Nbp2, Q12163) | SPOT intensity (Boi2, P39969) | SPOT intensity (Bem1-2, P29366) | SPOT intensity (Hof1, Q05080) | SPOT intensity (Myo5, Q04439) | SPOT intensity (Cyk3, Q07533) | Binder | further results
1 | 8 | 16 | 0 | 17 | 147 | 0 | 4 | 14 | 4 | 75 | 0 | 0 | 55 | 0 | 2 | 0 | 7 | 0 | 0 | 0 | LKHGWKPLRPIKLIS | SPOT intensity (Bem1-1, P29366): 0; SPOT intensity (Bzz1-1, P38822): 0; SPOT intensity (Lsb3, P43603): 0; SPOT intensity (Pin3, Q06449): 3; SPOT intensity (Bzz1-2, P38822): 1; SPOT intensity (Lsb1, P53281): 0; SPOT intensity (Bbc1, P47068): 14
2 | 9 | 4640 | 165 | 47 | 412 | 454 | 150 | 9 | 10 | 626 | 2 | 0 | 370 | 3 | 751 | 1 | 961 | 6 | 144 | 4 | KRRAPPPVPKKPSSR | SPOT intensity (Bem1-1, P29366): 1; SPOT intensity (Bzz1-1, P38822): 1320; SPOT intensity (Lsb3, P43603): 389; SPOT intensity (Pin3, Q06449): 14; SPOT intensity (Bzz1-2, P38822): 4500; SPOT intensity (Lsb1, P53281): 1850; SPOT intensity (Bbc1, P47068): 233
3 | 33 | 36 | 0 | 18 | 187 | 24 | 1 | 68 | 36 | 303 | 11 | 2 | 228 | 6 | 66 | 1 | 30 | 14 | 1 | 2 | NMLKKKPLKKPLKRF | SPOT intensity (Bem1-1, P29366): 0; SPOT intensity (Bzz1-1, P38822): 0; SPOT intensity (Lsb3, P43603): 2; SPOT intensity (Pin3, Q06449): 34; SPOT intensity (Bzz1-2, P38822): 46; SPOT intensity (Lsb1, P53281): 0; SPOT intensity (Bbc1, P47068): 160
4 | 3 | 155 | 45 | 395 | 857 | 233 | 180 | 2 | 0 | 673 | 0 | 0 | 509 | 1 | 1050 | 0 | 592 | 4 | 15 | 0 | RAPPPVPKKPSSRIA | SPOT intensity (Bem1-1, P29366): 0; SPOT intensity (Bzz1-1, P38822): 435; SPOT intensity (Lsb3, P43603): 415; SPOT intensity (Pin3, Q06449): 37; SPOT intensity (Bzz1-2, P38822): 590; SPOT intensity (Lsb1, P53281): 1600; SPOT intensity (Bbc1, P47068): 116
5 | 1 | 3500 | 44 | 41 | 368 | 342 | 182 | 3 | 6 | 648 | 2 | 0 | 399 | 2 | 650 | 1 | 389 | 8 | 119 | 1 | PKRRAPPPVPKKPSS | SPOT intensity (Bem1-1, P29366): 0; SPOT intensity (Bzz1-1, P38822): 650; SPOT intensity (Lsb3, P43603): 346; SPOT intensity (Pin3, Q06449): 11; SPOT intensity (Bzz1-2, P38822): 3420; SPOT intensity (Lsb1, P53281): 1740; SPOT intensity (Bbc1, P47068): 354
6 | 6 | 2980 | 99 | 42 | 310 | 491 | 129 | 12 | 6 | 555 | 3 | 2 | 487 | 6 | 887 | 1 | 497 | 2 | 232 | 2 | RPKRRAPPPVPKKPS | SPOT intensity (Bem1-1, P29366): 0; SPOT intensity (Bzz1-1, P38822): 480; SPOT intensity (Lsb3, P43603): 298; SPOT intensity (Pin3, Q06449): 9; SPOT intensity (Bzz1-2, P38822): 2580; SPOT intensity (Lsb1, P53281): 1450; SPOT intensity (Bbc1, P47068): 487
